According to the supplement of paper PMC10126150:
± gives the standard deviation of the averaged measurements.

System: ATP
Experiment: switch fluorescence ratio, 500 uM ATP over buffer (Cy3 cluster intensity, sum of 5 cycles each) (fold (ratio)); higher = stronger signal-on switching upon ATP binding; sequences stand for … in TCGTCGGCAGCGTCAGATGTGTATAAGAGACAGTTTTTTTTTTTTTTTTTTTTTTTTT…TC
Settings: aptamer strand: ATP DNA aptamer (quencher-CACCTGGGGGAGTATTGCGGAGGAAGG + anchor), 100 nM annealed; ATP concentration: 500 uM
Procedure, shortened: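 After annealing to 100 nM quencher-labelled ATP aptamer, Cy3-labelled switching-strand clusters on a modified Illumina MiSeq flow-cell were imaged in selection buffer. A second image followed after 15 min with 500 uM ATP at 22 °C, and five such buffer/ATP cycles were done, each separated by NaOH stripping and re-annealing. The fluorescence ratio, averaged per switch-domain sequence, is summed target-cycle over summed buffer-cycle Cy3 intensity per cluster, with clusters outside 100-1000 RFU excluded.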
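Note: ATP exposure 15 min at 22 °C before imaging.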

Point of comparison: GGTAGTAATT, switch fluorescence ratio 0.998 ± 0.0029. Against it:
- AAGGGTAAAT — within error, 0.996 ± 0.033
- TTATTTGCGC — higher, 1.024 ± 0.0036
- GAAAGTTCGC — within error, 1.02 ± 0.038
- AGAAGGTGGG — within error, 1.01 ± 0.021
- GAGCCTTACT — higher, 1.38 ± 0.26
- CAGATTGAAT — within error, 0.982 ± 0.024
- TTTAACCTGC — higher, 1.06 ± 0.011
- CATACGTCTG — higher, 1.04 ± 0.017
- GGGGAAGTAG — within error, 0.994 ± 0.018
- TAGTAATTTG — within error, 1.01 ± 0.019
- CAGTATGGGG — lower, 0.9664 ± 0.0013
- TGGTTACACG — higher, 1.06 ± 0.046
- GCCGGGTACG — within error, 0.992 ± 0.029
- TTAAGTGCCC — within error, 1 ± 0.021
- TGTGGGGCCA — within error, 0.96 ± 0.038
- GGCAGGGGGA — within error, 1.01 ± 0.015
- TGGCTGCCGT — within error, 0.988 ± 0.032
- GGTGTCGCTA — lower, 0.9795 ± 0.0094
- TTAAGGGCCA — lower, 0.9709 ± 0.0035
- GGAGTGGGTC — within error, 1.02 ± 0.041
- TCCTGTTACA — higher, 1.03 ± 0.017
- TTGGGGTCGG — within error, 0.999 ± 0.037
- AGTTAGGGTT — within error, 0.999 ± 0.039
- ACGCTTACTA — higher, 1.44 ± 0.054
- TGTAAGTTTC — within error, 1.04 ± 0.073
- AGCTGGGTCC — within error, 1.04 ± 0.041
- TGGGTGGGAT — within error, 1.002 ± 0.009
- GCGTATCGCG — within error, 0.985 ± 0.035
- GAATGGATGG — within error, 1 ± 0.011
- GGGGGCTAGT — within error, 0.991 ± 0.056
- AATCTTGTGT — within error, 0.985 ± 0.027
- GCGTATACGC — within error, 1.04 ± 0.041
- TGCGAGGGTG — within error, 1.02 ± 0.065
- CTTATTGGGT — within error, 0.993 ± 0.011
- CGGGATACGG — higher, 1.19 ± 0.065
- CGTCCACAGG — higher, 2.96 ± 0.092
- AGAGGCAAGA — higher, 1.16 ± 0.028
- GCCCGGTCGG — lower, 0.953 ± 0.017
- CGGTCATATT — lower, 0.9892 ± 0.0037
- GGTATTATCG — lower, 0.969 ± 0.017
- TTGGCAGGGG — higher, 1.06 ± 0.047
- AAGCTTGTGT — within error, 0.997 ± 0.069
- ATCGGGAGCC — lower, 0.959 ± 0.03
- TTCTGTATGT — within error, 0.97 ± 0.029
- GTAATTTCGT — within error, 0.99733 ± 0.0004
- TAAGGCTACA — within error, 1.01 ± 0.016
- AATTGTTGGG — within error, 1.01 ± 0.041
- TATGAGGGCA — higher, 1.02 ± 0.013
- ATGTGAGAGG — within error, 0.991 ± 0.022
- GCGATAAATT — within error, 0.983 ± 0.045
- CATGGGCTAG — within error, 0.997 ± 0.057
- TATTTTTATC — higher, 1.03 ± 0.018
- TACTCCGTTT — higher, 2.15 ± 0.34
- TGTAGGGTCA — lower, 0.9819 ± 0.0023
- TCATGGGGTT — higher, 1.006 ± 0.0065
- ACAAAGCGCC — higher, 1.06 ± 0.015
- CCGGGGGCTT — higher, 1.22 ± 0.019
- TTGGGAAAGG — within error, 1.002 ± 0.0053
- ACTCTGGGAG — higher, 1.03 ± 0.022
- CACATACATT — higher, 1.24 ± 0.067
- CGGAACCGGG — higher, 1.03 ± 0.024
- CCGGGGGAAG — higher, 1.04 ± 0.035
- TATTGAGGGG — within error, 1 ± 0.038
- ATTTGGTAAT — lower, 0.952 ± 0.01
- TTCTGTATGC — within error, 1.02 ± 0.045
- ATCGGTGGGG — lower, 0.963 ± 0.019
- ATGAGTGGAG — higher, 1.034 ± 0.004
- AAAGCTCTGT — within error, 0.992 ± 0.012
- TTTTTTGTAT — within error, 1.02 ± 0.087
- GAAAATGTCG — within error, 0.988 ± 0.07
- TAGTAGAGGT — within error, 1 ± 0.043
- CTAAATGGGA — within error, 1.01 ± 0.029
- GACCCGTCAG — within error, 1.01 ± 0.013
- TAAGGGGGGA — within error, 1.03 ± 0.08
- AGGGATTGAA — lower, 0.9875 ± 0.0022
- GCTGTAAGTT — within error, 0.9897 ± 0.0067
- GCTGCCACTA — within error, 1.003 ± 0.004
- CGCGTTTCCC — higher, 1.27 ± 0.038
- AGGGGTATCG — within error, 1 ± 0.029
- ACGAATGTGC — higher, 1.022 ± 0.0097
- TAATGACCAA — higher, 1.019 ± 0.0071
- TTTTTAAAAT — within error, 1.08 ± 0.22
- ATATCGTCGG — within error, 0.988 ± 0.028
- TTGGGCGTTT — within error, 1 ± 0.043
- TTGCCGGGGG — within error, 1.24 ± 0.38
- TGGGGAATTG — within error, 0.969 ± 0.053
- TGCGGTAAGG — within error, 1 ± 0.031
- TTGGCACAAT — higher, 1.05 ± 0.026
- AGGCGGTTTG — within error, 0.985 ± 0.034
- CCTTTGGGCT — within error, 0.989 ± 0.025
- CGGGGTTTTT — within error, 1.03 ± 0.12
- AGTATTTTG — lower, 0.96 ± 0.013
- GCGTTGATGA — within error, 1.01 ± 0.019
- ATTATGTAGG — within error, 0.988 ± 0.015
- GTTAATTTAG — within error, 0.987 ± 0.01
- TTTAGTACGT — within error, 1.02 ± 0.057
- ATAATGCTCT — within error, 1.02 ± 0.024
- CTAATTAAGT — within error, 0.973 ± 0.028
- TTTGCAGACA — within error, 1.01 ± 0.027
- GGATGCGGCC — within error, 0.992 ± 0.023
- ATGGTCTGCC — lower, 0.974 ± 0.02
- TACGATGAGT — within error, 0.996 ± 0.02
- TGAGCTGGGG — within error, 0.996 ± 0.02
- ACAGGGGTTT — within error, 1.37 ± 0.7
- GTATGAAGTT — within error, 0.982 ± 0.028
- AATGGATATG — within error, 1.02 ± 0.058
- TTTAAAGATT — within error, 1.01 ± 0.037
- AAGTTTTTTT — within error, 1 ± 0.025
- AGCATGGCTG — higher, 1.01 ± 0.001
- ATATATTTTA — within error, 1.01 ± 0.022
- TTTGGTCAGA — within error, 0.973 ± 0.049
- CGTCATGCTC — higher, 1.19 ± 0.036
- ACCTGTTGTT — within error, 0.991 ± 0.016
- TTTAGGGATT — within error, 1.03 ± 0.037
- GGGAAGGTTA — within error, 0.993 ± 0.017
- AGGTAAATTA — the same, 0.9982 ± 0.0076
- GTTGTCCTTG — within error, 1.01 ± 0.015
- ATGCTAACGT — lower, 0.9818 ± 0.0032
- AGACTGATAC — higher, 1.08 ± 0.025
- TATCAGAAGC — within error, 1.012 ± 0.01
- CGAGAAATGG — higher, 1.07 ± 0.055
- GCTCTTAGTG — lower, 0.9894 ± 0.0032
- AAGGGTTCAT — higher, 1.031 ± 0.0099
- AGTATTCGCT — lower, 0.975 ± 0.017
- CAATATGATA — within error, 1.003 ± 0.0011
- TTATTTAGCG — higher, 1.03 ± 0.029
- TTTTAGGCTC — within error, 1.03 ± 0.039
- AAAAGTAAAA — within error, 1.03 ± 0.061
- CTTCTAGGGG — higher, 1.05 ± 0.011
- GAGGGGAACT — within error, 0.995 ± 0.021
- TAGGTAAATT — within error, 1.02 ± 0.054
- TTTGAATTAG — within error, 1 ± 0.039
- GCCTTGAAGT — within error, 1 ± 0.013
- TATCAAAGGT — within error, 1.01 ± 0.025
- TTTGAATATA — within error, 0.985 ± 0.022
- TCACCATATT — higher, 1.05 ± 0.02
- TAAGTGAAAG — within error, 0.986 ± 0.022
- AGCGTTTGGG — higher, 1.0289 ± 0.001
- TGAAGATTTT — lower, 0.9704 ± 0.0081
- CGGTTAATTT — within error, 1.01 ± 0.027
- GGGGCTTTCG — within error, 1 ± 0.072
- TGGCGAAGTT — within error, 0.997 ± 0.024
- AAAGCTGGAG — higher, 1.03 ± 0.021
- GTGTTTCCGG — within error, 1.01 ± 0.045
- AATAAAATGG — the same, 0.998 ± 0.028
- ACACCACGTT — higher, 1.56 ± 0.057
- ATGGAATGCG — higher, 1.028 ± 0.0089
- TTTAAATGCC — within error, 1.05 ± 0.05
- TGGGAATGAA — within error, 0.992 ± 0.021
- TCGGGAACGC — higher, 1.04 ± 0.032
- GCTCAACTAA — within error, 1.02 ± 0.02
- AATTGCATAA — within error, 0.996 ± 0.04
- AAGGGGTGTT — within error, 1.02 ± 0.02
- GAAGCTTGGG — higher, 1.04 ± 0.025
- GGTTGCGGGG — lower, 0.9855 ± 0.0082
- ATTGACATAT — higher, 1.054 ± 0.0046
